Results published in patent US20220088148A1 (HANMI PHARM, published 2022).
Bridges are numbered along the chain shown (N, C = ends). Where no end group is shown, it is not given here. [ ]: non-standard residue; d: D form. The star is where a group is joined. Acetyl(2-(4-imidazolyl)) = O=C(Cc1c[nH]cn1)*; Aib = CC(C)(N)C(=O)O

T1: human GIP receptor (human, UniProt P48546 22-466)
T1 sequence (looked up): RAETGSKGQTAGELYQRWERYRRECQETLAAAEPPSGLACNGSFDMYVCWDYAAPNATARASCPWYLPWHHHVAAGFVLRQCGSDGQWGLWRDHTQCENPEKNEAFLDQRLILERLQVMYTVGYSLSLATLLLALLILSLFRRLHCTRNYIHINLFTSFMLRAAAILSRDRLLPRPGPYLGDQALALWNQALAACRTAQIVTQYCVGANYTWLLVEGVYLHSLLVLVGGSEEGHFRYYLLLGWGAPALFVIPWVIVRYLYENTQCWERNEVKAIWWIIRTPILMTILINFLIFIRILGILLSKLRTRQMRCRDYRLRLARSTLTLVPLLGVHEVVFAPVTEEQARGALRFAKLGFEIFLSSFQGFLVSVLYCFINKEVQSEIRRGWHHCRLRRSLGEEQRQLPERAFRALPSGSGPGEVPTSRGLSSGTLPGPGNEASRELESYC


Key:
Experiment in all cases: cell-based or functional assay
[1] = biological target: human GLP-1 receptor (human, UniProt P43220 24-463)
[2] = biological target: human GCG receptor (human, UniProt P47871 26-477)
[3] = biological target: T1, human GIP receptor

Chain of human GCG receptor (P47871 26-477): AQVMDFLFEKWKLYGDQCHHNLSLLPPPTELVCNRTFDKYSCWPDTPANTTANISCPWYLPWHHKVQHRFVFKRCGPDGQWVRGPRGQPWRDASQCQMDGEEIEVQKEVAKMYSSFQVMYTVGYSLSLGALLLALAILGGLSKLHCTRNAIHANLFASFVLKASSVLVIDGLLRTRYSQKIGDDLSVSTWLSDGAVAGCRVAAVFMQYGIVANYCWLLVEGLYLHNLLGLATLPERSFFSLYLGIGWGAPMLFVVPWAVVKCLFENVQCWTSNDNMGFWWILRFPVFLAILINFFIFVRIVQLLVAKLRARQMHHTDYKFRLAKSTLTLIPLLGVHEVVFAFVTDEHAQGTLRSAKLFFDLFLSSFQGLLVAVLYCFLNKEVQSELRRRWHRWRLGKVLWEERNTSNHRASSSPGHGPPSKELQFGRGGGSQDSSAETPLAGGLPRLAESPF

| Binder | In vitro activity (%) vs. GLP-1, cAMP EC50 [1] [%] | In vitro activity (%) vs. Glucagon, cAMP EC50 [2] [%] | In vitro activity (%) vs. GIP, cAMP EC50 [3] [%] |
| --- | --- | --- | --- |
| Y[Aib]QGTFTSDYSKYLDEKRAKDFVQWLLDHHPSSGQPPPSC (bridge 16-20) [triple agonist of SEQ ID NO: 76] | 10.3 | 47.6 | 11.7 |
| {Acetyl(2-(4-imidazolyl))}-[Aib]QGTFTSDYSIAMDEIHQKDFVNWLLNTC (bridge 15-19) [triple agonist of SEQ ID NO: 87] | 0.9 | < 0.1 | < 0.1 |
| [Acetyl(2-(4-imidazolyl))][Aib]QGTFTSDYSIAMDEIHQKDFVNWLLAQC (bridge 16-20) [triple agonist of SEQ ID NO: 85] | 4.3 | < 0.1 | 0.3 |
| Y[Aib]QGTFTSDCSKYLDERAAKDFVQWLLDHHPSSGQPPPS (bridge 16-20; ends not checked) [triple agonist of SEQ ID NO: 72] | 11.5 | 1 | 1.6 |
| {Acetyl(2-(4-imidazolyl))}-[Aib]EGTFTSDYSIAMDEIHQKDFVDWLLAEC (bridge 15-19) [triple agonist of SEQ ID NO: 84] | 4.2 | < 0.1 | < 0.1 |
| H[Aib]EGTFTSDYSIAMDEIHQKDFVNWLLAQKC (bridge 16-20) [triple agonist of SEQ ID NO: 79] | 41.5 | 4.9 | 1.4 |
| {Acetyl(2-(4-imidazolyl))}-[Aib]QGTFTSDYSIAMDEIHQKDFVNWLLAQKC (bridge 15-19) [triple agonist of SEQ ID NO: 92] | 0.8 | < 0.1 | 0.4 |
| H[Aib]QGTFTSDVSKYLDGQAAQEFVAWLLAGC [triple agonist of SEQ ID NO: 9] | 32.1 | 0.13 | < 0.1 |
| {Acetyl(2-(4-imidazolyl))}-[Aib]QGTFTSDYSKYLDEKRQKEFVQWLLNTKC (bridge 15-19) [triple agonist of SEQ ID NO: 88] | 9.6 | 0.3 | < 0.1 |
| Y[Aib]QGTFTSDYSKYLDEKAAKDFVQWLLDHHPSSGQPPPSC (bridge 16-20) [triple agonist of SEQ ID NO: 77] | 38.7 | 12.2 | 35.5 |
| Y[Aib]QGTFTSDYSKYLDEKRAKEFVQWLLDHCPSSGQPPPS (bridge 16-20) [triple agonist of SEQ ID NO: 96] | 34.4 | 195 | 5.2 |
| {Acetyl(2-(4-imidazolyl))}-[Aib]EGTFTSDYSIAMDEIHQKDFVNWLLAQKC (bridge 15-19) [triple agonist of SEQ ID NO: 90] | 7.4 | < 0.1 | < 0.1 |
| {Acetyl(2-(4-imidazolyl))}-[Aib]QGTFTSDYSKCLDEKRAKEFVQWLLDHHPSSGQPPPS (bridge 15-19) [triple agonist of SEQ ID NO: 74] | 12.9 | 0.9 | 1 |
| Y[Aib]QGTFTSDYSKCLDEKRAKDFVQWLLDHHPSSGQPPPS (bridge 16-20; ends not checked) [triple agonist of SEQ ID NO: 70] | 15.1 | 71.3 | 64.4 |
| [Acetyl(2-(4-imidazolyl))][Aib]QGTFTSDYSKYLDECRAKEFVQWLLDHHPSSGQPPPS (bridge 16-20; ends not checked) [triple agonist of SEQ ID NO: 73] | 22.6 | 5.4 | 3 |
| H[Aib]QGTFTSDYSKYLDEKRQKEFVQWLLDTKC (bridge 16-20) [triple agonist of SEQ ID NO: 78] | 51 | 14 | 0.12 |
| Y[Aib]QGTFTSDYSKYLDEKRAKEFVQWLLCHHPSSGQPPPS (bridge 16-20) [triple agonist of SEQ ID NO: 95] | 2.1 | 0.4 | < 0.1 |
| {Acetyl(2-(4-imidazolyl))}-[Aib]QGTFTSDYSKYLDEKRQKEFVNWLLAQC (bridge 15-19) [triple agonist of SEQ ID NO: 86] | 28.4 | 0.4 | 0.2 |
| {Acetyl(2-(4-imidazolyl))}-[Aib]EGTFTSDYSIAMDEIHQKDFVDWLLAEKC (bridge 15-19) [triple agonist of SEQ ID NO: 91] | 31.9 | 16.8 | 0.3 |
| {Acetyl(2-(4-imidazolyl))}-[Aib]QGTFTSDYSIAMDEIHQKDFVNWLLNTKC (bridge 15-19) [triple agonist of SEQ ID NO: 94] | 0.5 | < 0.1 | < 0.1 |
| Y[Aib]QGTFTSDYSKYLDEKAAKEFVQWLLDHHPSSGQPPPSC (bridge 16-20) [triple agonist of SEQ ID NO: 75] | 35.1 | 8.5 | 18 |
| H[Aib]EGTFTSDYSIAMDEIHQKDFVDWLLAEKC (bridge 16-20) [triple agonist of SEQ ID NO: 80] | 8.1 | 0 | 0.1 |
| [Acetyl(2-(4-imidazolyl))][Aib]EGTFTSDYSIAMDEIHQKDFVNWLLAQC (bridge 16-20) [triple agonist of SEQ ID NO: 83] | 47.3 | 1.3 | 0.4 |
| {Acetyl(2-(4-imidazolyl))}-[Aib]QGTFTSDYSKYLDEKRQKEFVQWLLDTKC (bridge 15-19) [triple agonist of SEQ ID NO: 89] | 7.1 | 0.7 | < 0.1 |
| H[Aib]QGTFTSDVSKYLDGQAAQEFVAWLLKGC [triple agonist of SEQ ID NO: 8] | 14.2 | 0.1 | < 0.1 |
| H[Aib]QGTFTSDVSKYLDGQAAQEFVAWLLAGGGPSSGAPPPSC [triple agonist of SEQ ID NO: 10] | 46 | < 0.1 | < 0.1 |
| Y[Aib]QGTFTSDYSKYLDERACKDFVQWLLDHHPSSGQPPPS (bridge 16-20; ends not checked) [triple agonist of SEQ ID NO: 71] | 90.1 | 12.7 | 94.7 |
| {Acetyl(2-(4-imidazolyl))}-[Aib]QGTFTSDYSKYLDEKRQKEFVQWLLDTC (bridge 15-19) [triple agonist of SEQ ID NO: 82] | 9.5 | 1.1 | < 0.1 |
| {Acetyl(2-(4-imidazolyl))}-[Aib]QGTFTSDYSKYLDEKRQKEFVNWLLAQKC (bridge 15-19) [triple agonist of SEQ ID NO: 93] | 5.7 | 0.3 | 0.7 |
| {Acetyl(2-(4-imidazolyl))}-[Aib]QGTFTSDYSKYLDEKRQKEFVQWLLNTC (bridge 15-19) [triple agonist of SEQ ID NO: 81] | 7.8 | 0.3 | < 0.1 |
